Results as given in the nanobody polyreactivity screen of Harvey et al. (2022).

Test: yeast display, Sf9 membrane polyspecificity reagent, FACS + sequencing; frameworks hold sequencing errors
Outline: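 A nanobody's polyreactivity label depends on the gate it was sorted from. Yeast display cells were stained with 10% biotinylated, detergent-solubilized Sf9 membrane reagent for 1 hour at 4 °C, enriched on streptavidin microbeads and sorted by FACS. The low and high (top ~1%) gates were set on anti-HA fluorescence for expression and streptavidin fluorescence for reagent binding.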
For “QVQLVESGGGLVQAGGSLRLSCAASGFIYRYNVMGWYRHAPGKEMEMVAAISTSGGRTYYADSVKGRFTISRDNAKNTVYLQMNSLKPEDSAVYYCNAVKSEVQKVGDGYYWGLGTQVTVSS”, the “polyreactivity (PSR sort gate)” value was “high polyreactivity”.
In the case of “QVQLVESGGGLVQAGGSLRLSCAASGFIYTSYTMGWYRQAPGKERELVAAISYRGGRTYYADSVNGRFTISRDNAKNTVYLQMNSLKPEVTAVYYCAADRVNREFDYWGQGTQVTVSS”, the “polyreactivity (PSR sort gate)” value is reported as “high polyreactivity”.
With “QVQLVESGGGLVQAGGSLRLSCAASGFIYVYNAMGWYRKAPGKEREFVAGISRSGGNTYYADSVKGRFTISRDNAKNTVYLQMNSLKPEDTAVYYCAVVNRRFGFPNVALRSNYGDYWGQGTQVTVSS” the “polyreactivity (PSR sort gate)” value was “low polyreactivity”.
In the case of “QVQLVESGGGLVQAGGSLRLSCAASGFIYYYNAMGWYSQAPGKERELVAAISSRGTSTYYADSVKGRFTISRENAKNTVYLQMNSLKPEDTAVYYCNALGNFGMDYWGQGNQVTVSS”, the “polyreactivity (PSR sort gate)” value is reported as “high polyreactivity”.
With “QVQLVESGGGLVQAGGSLRLSCAASGFNFAIYAMGWYRQAPGKERELVAAINSDGSTYYADSLKGLFTISRDNAKNSDYLQINSLKPEDTAVYYCNAETAGHDMDYWGQGTQVTVSS” the “polyreactivity (PSR sort gate)” value was “low polyreactivity”.
For “QVQLVESGGGLVQAGGSLRLSCAASGFNFERYAMGWYRQAPGKERELVAAISSRGGGTYYADSVKGRFTISRDNAKNTVYLQMNSLKPEDTAVYYCNRPYDYSYNYWGQGTQVTVSS”, the “polyreactivity (PSR sort gate)” value was “high polyreactivity”.
For “QVQLVESGGGLVQAGGSLRLSCAASGFNFLGNAMGWYRQAPGKERELVAAISSGGSTYADSVKGRFTISRDNAKNTVYLQMISLKPEDTAVYYCAVDRAFRAQNYHEYEYWGQGTQVTVSS”, the “polyreactivity (PSR sort gate)” value was “low polyreactivity”.
For “QVQLVESGGGLVQAGGSLRLSCAASGFNFPRYVMGWYRQAPGKERELVAAINSDISTNYADSVKGRFTISRDNANNSVYLQMTSLKPEDTAVFYCADERWDDPWEFDSWGQCTQVTVSS”, the “polyreactivity (PSR sort gate)” value was “low polyreactivity”.
In the case of “QVQLVESGGGLVQAGGSLRLSCAASGFNFPYYAMGWYRQAPGKERELVAAISSSGGSTYYADSVKGRFTISRDNAKNTVYLHMNSLKPEDTAVYYCAADAYSGYSDYYWGQGTQVTVSS”, the “polyreactivity (PSR sort gate)” value is reported as “low polyreactivity”.
For “QVQLVESGGGLVQAGGSLRLSCAASGFNFRFYAMGWYRQAPGKERELVAVITWSGGRTYYADSVKGRFTISRDNAKNTVYLQMNSLKPEDTAVYYCAAKRGKTYQRFDYWGQGTQVTVSS”, the “polyreactivity (PSR sort gate)” value was “high polyreactivity”.
With “QVQLVESGGGLVQAGGSLRLSCAASGFNFRVNAMGWYRQAPGKERELVAAITKSGGSTYYADSVKGRFTISRDNAKNTVYLQMNSLKPEDTAVYYCNVVWQYSTYVRYNYWGQGTQVTVSS” the “polyreactivity (PSR sort gate)” value was “low polyreactivity”.
For “QVQLVESGGGLVQAGGSLRLSCAASGFNFSDYDMGWYRQAPGKERELVAAITYSGCSTYYADSVKGRFTISRDNAKKTVYLQMNSLKPEDTAVYYCAAVKSRYAEAVDYYYWGQGTQVTVSS”, the “polyreactivity (PSR sort gate)” value was “low polyreactivity”.
For “QVQLVESGGGLVQAGGSLRLSCAASGFNIGRNAMGWYRQAPGKERELVAGISISGGSTYYADSVKGRFTISRDNAKNTVYLQMNSLKPEDTAVYYCAAEYAYSLDPEEDYWGQGTQVTVSS”, the “polyreactivity (PSR sort gate)” value was “high polyreactivity”.
For “QVQLVESGGGLVQAGGSLRLSCAASGFNIIPYDMGWYRQAPGKEMDLVATISRGGSTNYADSVKGRFTISRDNAKNTVYLQMNSLKPEDTAVYYCAAEYKVVFSQPYGEYDYWGQGTQVTVSS”, the “polyreactivity (PSR sort gate)” value was “low polyreactivity”.
For “QVQLVESGGGLVQAGGSLRLSCAASGFNITYVMGWYRQAPGKERELVAVITNGGSTYYADSVKGRFTISRDNAMNTVYLLMNSLKPEDTAVYYCAARARFRYDSYYYWGQGTQLTVSS”, the “polyreactivity (PSR sort gate)” value was “high polyreactivity”.
For “QVQLVESGGGLVQAGGSLRLSCAASGFNIYYYTMGWYRQAPGKERELVAAISKSGGNTYYADSVKGRFTISRDNAKNTVYLQMNSLKPEDTAVYYCAASRYNTVTYYYWGQGTQVTVSS”, the “polyreactivity (PSR sort gate)” value was “high polyreactivity”.
For “QVQLVESGGGLVQAGGSLRLSCAASGFNYYTMGWYRQAPGKERELVAAINYSGGRTYYADSVKGRFTISRDNAKNTVYLQMNSLKPEDTAVYYCNTARSPYDHRPERSYDYWGQGTQVTVSS”, the “polyreactivity (PSR sort gate)” value was “high polyreactivity”.
With “QVQLVESGGGLVQAGGSLRLSCAASGFPFAKNAMGWYRQAPGKERELVAVITSSGGSTYYADSVKGRFTISRDNAKNTVYLQMNCLKPEDTAVYYCNVAYYYRSRSTGYEYWGQGTQVTVSS” the “polyreactivity (PSR sort gate)” value was “high polyreactivity”.
For “QVQLVESGGGLVQAGGSLRLSCAASGFPFSRYARGWSRQAPGTERELVATITARGGTTYYADSVKGRFTISRDNAKNTVYLQMNSLKPEDTAVYYCNAKAYYRPYYDYDYGGQGTQVTVSS”, the “polyreactivity (PSR sort gate)” value was “high polyreactivity”.
For “QVQLVESGGGLVQAGGSLRLSCAASGFSFLQYVMGWYSQAPGKERELFAAITSGGSTYYADSVKGRFTISRDNAKNTVYLQMNSLKPDDTAVYYCATDVADNTFYALYGSDYWGQCTQVTVSS”, the “polyreactivity (PSR sort gate)” value was “low polyreactivity”.
For “QVQLVESGGGLVQAGGSLRLSCAASGFSFRYYTMGWYRPAPGKERELVARITWSGRITDYADSVKGRFTISRDNPKNTVYLQMNSLKPEDTAVSYCNAERRWAAYDYCGQGTQVTVSS”, the “polyreactivity (PSR sort gate)” value was “high polyreactivity”.
With “QVQLVESGGGLVQAGGSLRLSCAASGFSFSRNAKGWYRQAPGKERELVAAISIRGGSTYYADSVKGRFTISRDNAKNTVYLQMNILKPEDTAVYYCNAYDLYRQRNGYGYWGQGTQVTVSS” the “polyreactivity (PSR sort gate)” value was “high polyreactivity”.
In the case of “QVQLVESGGGLVQAGGSLRLSCAASGFSFSRYAMGWYRQAPGKDRELVATITSGGGGTYYADSVKGRFTISRDNAKNTVYLQKNSLKPEDTAVYYCAKYSPYYRNGLDYWGHGTQVTVSS”, the “polyreactivity (PSR sort gate)” value is reported as “high polyreactivity”.
With “QVQLVESGGGLVQAGGSLRLSCAASGFSFVYYAMGWYRQAPGKERELVATISGNGGRTYYADSVKGRFTISRDNAKNTVYLQMNSLKPEDTAVYYCAALLYIRSVGYDYWGQGTQVTVSS” the “polyreactivity (PSR sort gate)” value was “low polyreactivity”.
For “QVQLVESGGGLVQAGGSLRLSCAASGFSFYYNTMGWYRQAPWTERELVAAITRSFGSTYYADSVKGSFTIARDHAQNTVYVQMNSLKPEDTAVYFCAARAYYFPKLPADYYWGQGTQVSVSS”, the “polyreactivity (PSR sort gate)” value was “high polyreactivity”.
With “QVQLVESGGGLVQAGGSLRLSCAASGFSSVRNDMGWYRQAPGKERELVAAISSGDTKDYADSVKGRFTISRDNAKNTVYLQMNSLNPEDTSVYYCAAVYYGRYYYWGQGTQVTVSS” the “polyreactivity (PSR sort gate)” value was “low polyreactivity”.
With “QVQLVESGGGLVQAGGSLRLSCAASGFTCKYYTMGWYRQAPGKERELVAAISKSGDITYYADSVKGRFTISRDNAKNTVYLQMNSMKPEDTAVYYCAVVPSSTYHAYDYWGQGTQVTVSS” the “polyreactivity (PSR sort gate)” value was “high polyreactivity”.
In the case of “QVQLVESGGGLVQAGGSLRLSCAASGFTFAAYAMGWSRQAPGKERELVAAISRSGGSTYYADSVKGRFTISRDNAKNTVYLQMNSLKPEDTAVYYCAAYGWPKYNYWGQGTQVTVSS”, the “polyreactivity (PSR sort gate)” value is reported as “high polyreactivity”.
With “QVQLVESGGGLVQAGGSLRLSCAASGFTFAAYAMGWYRQAPGKESELVAAITSRDGTTYYADSVKGRFTISRNNAKNTVYLQMNSLKPEDTAVYYCAKDHFTWGVSEDDYWRQGTQVTVSS” the “polyreactivity (PSR sort gate)” value was “low polyreactivity”.
For “QVQLVESGGGLVQAGGSLRLSCAASGFTFAFYAMGWYRQAPGKERELVAAISWDGVTTYYADSVKGRFTISRDHAKNTVYLQMNSQKPEDTAVYYCAADYPDYAGSFWPSGMYYWGQGTQVTVSS”, the “polyreactivity (PSR sort gate)” value was “low polyreactivity”.
In the case of “QVQLVESGGGLVQAGGSLRLSCAASGFTFAFYAMGWYRQAPGKERELVAAITGSGGSTYYADSVKGRFTISRDNAKNTVYLQMNSLKPEDTAVYYCAADKYLDYDYWGQGTQVTVSS”, the “polyreactivity (PSR sort gate)” value is reported as “high polyreactivity”.
In the case of “QVQLVESGGGLVQAGGSLRLSCAASGFTFAFYAMGWYRQAPGKERELVDAIRRTGSTNYADSVKGRFTISRDNAKNTVYLQMNSLKPEDNAVYYCAKTLWYDRGVGYWGQGTQVTVSS”, the “polyreactivity (PSR sort gate)” value is reported as “high polyreactivity”.
With “QVQLVESGGGLVQAGGSLRLSCAASGFTFAFYDMGWYRQAPGKERELVAGISTSDGSTYYADSVKGRFTISRDNAKNTVYLQMNSLKPEDTAVYYCAASYYTYWWGYPVITFDYWGQGTQVTVSS” the “polyreactivity (PSR sort gate)” value was “high polyreactivity”.
For “QVQLVESGGGLVQAGGSLRLSCAASGFTFAGNAMGWYRQAPGKERELVAAISRRGGSTYYADSVKGRFTISRDNAKNTVYLQMNSLKPEDTAVYYCAAVYPYDYDYWGQGTQVTVSS”, the “polyreactivity (PSR sort gate)” value was “high polyreactivity”.
In the case of “QVQLVESGGGLVQAGGSLRLSCAASGFTFAGYAMGWYRQAPGKEMELVAAINYRGVRTYYADSVKGRFTISRDNSKNTVYLQMNSLIPEDTAVYYCAALPFLPGGGYVIHRFYYWGQGSQVTVSS”, the “polyreactivity (PSR sort gate)” value is reported as “high polyreactivity”.
With “QVQLVESGGGLVQAGGSLRLSCAASGFTFAGYAMGWYRQAPGKERELVAAINRGGSTYYADSVKGRFTISRDNAKNTVYLQMNSLKPEDTAVYYCAKAQRFYGGRMGYWGQGTQVTVST” the “polyreactivity (PSR sort gate)” value was “low polyreactivity”.
For “QVQLVESGGGLVQAGGSLRLSCAASGFTFAHNAMGWYRQAPGKERELVAAISSRGGRTFYADSVKGRFTISRDNAKNTVYLQMNSLKPEDTAVYYCNRVRSFQYDYWGQGTQVTVSS”, the “polyreactivity (PSR sort gate)” value was “high polyreactivity”.
With “QVQLVESGGGLVQAGGSLRLSCAASGFTFAKYAMGWYRQAPGKERELVAAITNSGCRTYYEDSVKGRFTISRDNAKNTVYLQMNSPKPEDTAVYYCATEQLGGSIYDYWGQGTQVTVSS” the “polyreactivity (PSR sort gate)” value was “high polyreactivity”.
In the case of “QVQLVESGGGLVQAGGSLRLSCAASGFTFALNAMGWYRQAPGKERELVAAISSRGGSTYYADSVKGRFTISRDNAKNTVYLQMNSLKPEDTAGYYCAKDYKADSRFSPYGYWGQGTQVTVSS”, the “polyreactivity (PSR sort gate)” value is reported as “high polyreactivity”.
For “QVQLVESGGGLVQAGGSLRLSCAASGFTFALYAMGWYRQAPGKERELVAAITSGGSTNYADSVKGRFTISRDNAKNTVYLLMNSLKPEDTAVYYCAAVPYYRYYSLKGRNNYNYWGQGTQVTVSS”, the “polyreactivity (PSR sort gate)” value was “high polyreactivity”.
In the case of “QVQLVESGGGLVQAGGSLRLSCAASGFTFANNAMGWYRQAPGKERELVAAITRGDSTYYAESVKGRFTISRDNAKNTVYLQMNSRKPEDTAVYYCAKEWYFPIYDYWGQGTQVTVSS”, the “polyreactivity (PSR sort gate)” value is reported as “low polyreactivity”.
With “QVQLVESGGGLVQAGGSLRLSCAASGFTFAPNAMGWYRQAPGKEMELVAAISSASSTYYADSVKGRFTISRDNAKNTVYLQMNSLKPEDTAVYYCAARVFKKYRPSGRYYYWGQGSQVTVSS” the “polyreactivity (PSR sort gate)” value was “high polyreactivity”.
With “QVQLVESGGGLVQAGGSLRLSCAASGFTFARNTMGWYRQAPGKEREFVAVITNRGGSTYYADSVKGRFTISRDNAKNTVYLQMNSLKPEDTAVYYCAARKKHSGYGRGNYWGQGTQVTVSS” the “polyreactivity (PSR sort gate)” value was “high polyreactivity”.
